Patent US20190134153A1, “IMMUNOMODULATORY EFFECT OF INHALED KINASE INHIBITOR PEPTIDES IN LUNG” (MOERAE MATRIX, INC., priority 2017, published 2019)

Key:
Test in all cases: Kinase Profiling Assay
Format in all cases: biochemical
Settings in all cases: 100 μM
RIPK2(h) = RIPK2(h) (Homo sapiens, UniProt O43353)
PrKX(h) = target: T1, PrKX(h) (Homo sapiens, UniProt P51817)
T1 sequence (P51817 1-358): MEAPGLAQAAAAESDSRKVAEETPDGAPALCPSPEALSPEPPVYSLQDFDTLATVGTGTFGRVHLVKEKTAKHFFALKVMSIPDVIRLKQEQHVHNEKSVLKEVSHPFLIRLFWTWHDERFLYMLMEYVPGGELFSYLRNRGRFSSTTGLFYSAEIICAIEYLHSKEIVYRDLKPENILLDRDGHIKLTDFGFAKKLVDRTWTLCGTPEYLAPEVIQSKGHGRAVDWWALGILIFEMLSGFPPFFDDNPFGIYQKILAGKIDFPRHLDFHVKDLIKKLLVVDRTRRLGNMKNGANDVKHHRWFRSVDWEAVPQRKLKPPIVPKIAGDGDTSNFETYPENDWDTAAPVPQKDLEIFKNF

MSK2(h) = MSK2(h) (Homo sapiens, UniProt O75676)
PKCε(h) = target: T2, PKCε(h) (Homo sapiens, UniProt Q02156)
T2 sequence (Q02156 1-737): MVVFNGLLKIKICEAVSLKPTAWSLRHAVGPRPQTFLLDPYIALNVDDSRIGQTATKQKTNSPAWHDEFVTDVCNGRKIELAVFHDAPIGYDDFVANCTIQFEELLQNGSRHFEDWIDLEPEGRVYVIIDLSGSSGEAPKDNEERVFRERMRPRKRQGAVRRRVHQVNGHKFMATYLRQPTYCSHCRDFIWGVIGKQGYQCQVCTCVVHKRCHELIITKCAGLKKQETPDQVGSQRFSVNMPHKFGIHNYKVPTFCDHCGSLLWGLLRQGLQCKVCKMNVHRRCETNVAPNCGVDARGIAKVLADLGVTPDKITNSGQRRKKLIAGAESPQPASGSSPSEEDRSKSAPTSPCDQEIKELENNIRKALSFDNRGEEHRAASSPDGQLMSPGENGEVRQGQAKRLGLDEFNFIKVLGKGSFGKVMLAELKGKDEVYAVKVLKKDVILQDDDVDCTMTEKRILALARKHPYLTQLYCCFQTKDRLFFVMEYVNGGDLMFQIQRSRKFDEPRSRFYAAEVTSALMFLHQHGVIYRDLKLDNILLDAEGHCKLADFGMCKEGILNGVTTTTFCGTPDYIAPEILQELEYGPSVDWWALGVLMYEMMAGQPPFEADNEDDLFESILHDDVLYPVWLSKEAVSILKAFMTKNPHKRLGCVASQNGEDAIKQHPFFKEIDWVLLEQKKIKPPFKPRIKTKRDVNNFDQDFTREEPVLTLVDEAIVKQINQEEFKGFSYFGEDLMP

FGFR2(h) = FGFR2(h) (Homo sapiens, UniProt P21802)
Src(1-530)(h) = target: T3, Src(1-530)(h) (Homo sapiens, UniProt P12931)
T3 construct: Src(1-530)(h)

Ron(h) = Ron(h) (Homo sapiens, UniProt Q04912)
SGK3(h) = target: T4, SGK3(h) (Homo sapiens, UniProt Q96BR1)
T4 sequence (Q96BR1 1-496): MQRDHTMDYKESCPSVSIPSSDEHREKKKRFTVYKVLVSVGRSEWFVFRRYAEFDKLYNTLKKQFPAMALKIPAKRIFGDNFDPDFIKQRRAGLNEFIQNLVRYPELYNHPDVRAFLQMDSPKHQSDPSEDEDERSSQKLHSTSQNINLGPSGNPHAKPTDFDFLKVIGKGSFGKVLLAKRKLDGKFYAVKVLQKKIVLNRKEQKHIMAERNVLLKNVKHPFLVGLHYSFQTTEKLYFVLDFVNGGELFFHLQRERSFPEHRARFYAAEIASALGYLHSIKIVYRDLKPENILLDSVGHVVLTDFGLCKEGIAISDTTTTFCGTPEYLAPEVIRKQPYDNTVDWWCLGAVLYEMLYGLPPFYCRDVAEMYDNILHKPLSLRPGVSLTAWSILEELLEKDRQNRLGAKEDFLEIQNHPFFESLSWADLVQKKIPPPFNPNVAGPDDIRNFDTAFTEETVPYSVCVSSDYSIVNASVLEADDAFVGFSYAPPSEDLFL

CDK5/p35(h) = CDK5/p35(h) (Homo sapiens, UniProt Q00535)
NEK2(h) = target: T5, NEK2(h) (Homo sapiens, UniProt P51955)
T5 sequence (P51955 1-445): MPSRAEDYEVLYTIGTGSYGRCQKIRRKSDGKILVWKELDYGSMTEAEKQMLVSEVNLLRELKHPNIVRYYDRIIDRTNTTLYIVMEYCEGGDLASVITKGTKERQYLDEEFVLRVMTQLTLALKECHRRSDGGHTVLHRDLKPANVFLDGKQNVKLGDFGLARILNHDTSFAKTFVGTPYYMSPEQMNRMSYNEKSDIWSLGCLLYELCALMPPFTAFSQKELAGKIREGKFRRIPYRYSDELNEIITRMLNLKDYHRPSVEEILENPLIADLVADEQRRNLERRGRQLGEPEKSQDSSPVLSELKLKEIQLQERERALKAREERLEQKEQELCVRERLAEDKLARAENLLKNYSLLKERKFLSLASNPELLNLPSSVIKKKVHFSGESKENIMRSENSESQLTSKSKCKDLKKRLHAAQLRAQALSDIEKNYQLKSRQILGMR

Flt4(h) = Flt4(h) (Homo sapiens, UniProt P35916)
MAPKAP-K3(h) = MAPKAP-K3(h) (Homo sapiens, UniProt Q16644)
Fer(h) = Fer(h) (Homo sapiens, UniProt P16591)
FGFR3(h) = FGFR3(h) (Homo sapiens, UniProt P22607)
EGFR(L858R)(h) = EGFR(L858R)(h) (Homo sapiens, UniProt P00533, L858R)

Chain of MSK2(h) (O75676 whole entry): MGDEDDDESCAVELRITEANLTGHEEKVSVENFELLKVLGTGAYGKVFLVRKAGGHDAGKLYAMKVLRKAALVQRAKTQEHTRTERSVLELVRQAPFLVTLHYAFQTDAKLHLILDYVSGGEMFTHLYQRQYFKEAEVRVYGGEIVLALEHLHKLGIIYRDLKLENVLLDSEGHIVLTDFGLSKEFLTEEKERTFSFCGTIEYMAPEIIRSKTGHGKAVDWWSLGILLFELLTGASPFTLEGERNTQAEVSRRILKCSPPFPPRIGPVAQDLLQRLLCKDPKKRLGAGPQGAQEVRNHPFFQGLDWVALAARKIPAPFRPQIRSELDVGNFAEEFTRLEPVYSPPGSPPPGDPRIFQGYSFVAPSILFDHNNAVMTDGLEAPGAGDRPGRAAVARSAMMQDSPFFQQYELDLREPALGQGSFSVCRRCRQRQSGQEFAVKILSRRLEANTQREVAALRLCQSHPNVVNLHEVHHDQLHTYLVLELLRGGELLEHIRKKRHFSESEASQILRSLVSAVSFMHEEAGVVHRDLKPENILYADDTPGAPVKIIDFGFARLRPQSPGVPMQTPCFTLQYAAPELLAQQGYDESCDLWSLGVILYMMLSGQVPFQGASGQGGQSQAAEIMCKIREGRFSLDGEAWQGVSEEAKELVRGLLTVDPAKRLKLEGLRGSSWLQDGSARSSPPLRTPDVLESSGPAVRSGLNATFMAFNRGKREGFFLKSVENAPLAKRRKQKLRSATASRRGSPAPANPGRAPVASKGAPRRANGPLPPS
Chain of Flt4(h) (P35916 25-1363): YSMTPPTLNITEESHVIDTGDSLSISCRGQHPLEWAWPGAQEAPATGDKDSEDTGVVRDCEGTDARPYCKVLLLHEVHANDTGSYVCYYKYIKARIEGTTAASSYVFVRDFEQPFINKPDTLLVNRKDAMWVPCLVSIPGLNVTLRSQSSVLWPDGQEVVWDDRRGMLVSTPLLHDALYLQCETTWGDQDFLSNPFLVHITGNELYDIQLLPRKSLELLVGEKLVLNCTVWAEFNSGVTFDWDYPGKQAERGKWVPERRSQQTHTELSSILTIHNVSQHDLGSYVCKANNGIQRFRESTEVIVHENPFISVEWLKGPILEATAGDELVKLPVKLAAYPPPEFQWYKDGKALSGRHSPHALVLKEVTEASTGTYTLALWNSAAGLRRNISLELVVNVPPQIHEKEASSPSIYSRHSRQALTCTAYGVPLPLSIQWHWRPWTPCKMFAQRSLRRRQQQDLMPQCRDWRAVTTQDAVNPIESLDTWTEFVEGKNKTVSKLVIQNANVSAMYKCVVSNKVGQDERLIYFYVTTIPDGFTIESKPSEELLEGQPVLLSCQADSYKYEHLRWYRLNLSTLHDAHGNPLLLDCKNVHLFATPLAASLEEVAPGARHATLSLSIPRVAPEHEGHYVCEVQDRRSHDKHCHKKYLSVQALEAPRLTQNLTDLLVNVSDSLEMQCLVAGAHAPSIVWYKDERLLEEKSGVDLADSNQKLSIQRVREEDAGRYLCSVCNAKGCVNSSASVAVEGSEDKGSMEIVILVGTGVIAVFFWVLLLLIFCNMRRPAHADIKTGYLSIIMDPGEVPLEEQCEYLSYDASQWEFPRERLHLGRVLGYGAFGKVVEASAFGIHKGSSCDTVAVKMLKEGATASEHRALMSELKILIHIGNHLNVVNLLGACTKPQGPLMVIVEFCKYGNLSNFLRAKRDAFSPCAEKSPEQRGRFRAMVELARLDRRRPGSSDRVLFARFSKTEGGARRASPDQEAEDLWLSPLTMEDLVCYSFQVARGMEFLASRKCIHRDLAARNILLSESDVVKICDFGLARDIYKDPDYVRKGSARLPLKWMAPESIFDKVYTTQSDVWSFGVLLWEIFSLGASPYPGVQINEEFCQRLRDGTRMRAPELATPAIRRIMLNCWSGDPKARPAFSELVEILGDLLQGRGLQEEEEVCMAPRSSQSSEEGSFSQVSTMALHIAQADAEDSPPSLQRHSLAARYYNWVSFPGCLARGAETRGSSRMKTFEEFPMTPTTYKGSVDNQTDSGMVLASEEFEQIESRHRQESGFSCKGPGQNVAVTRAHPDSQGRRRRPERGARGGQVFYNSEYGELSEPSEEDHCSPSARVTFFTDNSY
Chain of FGFR3(h) (P22607 23-806): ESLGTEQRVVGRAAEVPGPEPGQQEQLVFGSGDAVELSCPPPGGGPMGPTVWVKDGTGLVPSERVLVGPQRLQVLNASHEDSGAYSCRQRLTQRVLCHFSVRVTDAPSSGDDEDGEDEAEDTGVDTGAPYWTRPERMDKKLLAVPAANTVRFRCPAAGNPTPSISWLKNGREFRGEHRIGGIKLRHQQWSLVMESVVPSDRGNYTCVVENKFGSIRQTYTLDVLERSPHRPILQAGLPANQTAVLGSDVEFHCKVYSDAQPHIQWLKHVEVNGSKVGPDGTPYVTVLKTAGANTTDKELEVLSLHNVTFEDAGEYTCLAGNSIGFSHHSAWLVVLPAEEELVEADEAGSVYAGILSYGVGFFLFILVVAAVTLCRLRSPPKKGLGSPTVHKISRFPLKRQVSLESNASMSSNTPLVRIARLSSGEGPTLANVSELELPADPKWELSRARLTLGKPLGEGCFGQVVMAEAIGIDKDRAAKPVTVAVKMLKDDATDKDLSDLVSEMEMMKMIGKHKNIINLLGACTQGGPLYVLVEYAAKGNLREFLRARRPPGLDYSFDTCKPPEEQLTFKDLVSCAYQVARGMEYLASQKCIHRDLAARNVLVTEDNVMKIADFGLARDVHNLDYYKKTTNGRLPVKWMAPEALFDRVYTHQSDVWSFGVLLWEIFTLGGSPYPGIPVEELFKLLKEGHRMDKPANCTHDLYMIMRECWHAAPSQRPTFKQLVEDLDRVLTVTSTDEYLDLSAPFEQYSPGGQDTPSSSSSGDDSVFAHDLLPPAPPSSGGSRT
Chain of CDK5/p35(h) (Q00535 whole entry): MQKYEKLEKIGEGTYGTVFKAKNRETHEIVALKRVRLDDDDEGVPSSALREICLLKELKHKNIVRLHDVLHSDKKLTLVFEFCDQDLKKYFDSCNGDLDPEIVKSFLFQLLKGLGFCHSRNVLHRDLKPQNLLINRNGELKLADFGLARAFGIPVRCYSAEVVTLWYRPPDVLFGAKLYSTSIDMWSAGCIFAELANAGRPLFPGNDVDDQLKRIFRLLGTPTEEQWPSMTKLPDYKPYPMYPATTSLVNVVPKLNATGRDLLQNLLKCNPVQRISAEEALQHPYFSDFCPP
Chain of CDK5/p35(h) (Q15078 whole entry partner): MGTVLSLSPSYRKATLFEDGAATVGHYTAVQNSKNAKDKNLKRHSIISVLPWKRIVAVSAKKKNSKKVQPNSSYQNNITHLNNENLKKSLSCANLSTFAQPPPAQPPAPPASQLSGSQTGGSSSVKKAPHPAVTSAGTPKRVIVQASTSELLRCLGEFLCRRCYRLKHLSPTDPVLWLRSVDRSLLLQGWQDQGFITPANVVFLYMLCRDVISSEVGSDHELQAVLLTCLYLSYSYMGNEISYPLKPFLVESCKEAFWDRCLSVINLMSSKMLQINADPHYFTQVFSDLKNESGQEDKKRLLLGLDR
Chain of MAPKAP-K3(h) (Q16644 whole entry): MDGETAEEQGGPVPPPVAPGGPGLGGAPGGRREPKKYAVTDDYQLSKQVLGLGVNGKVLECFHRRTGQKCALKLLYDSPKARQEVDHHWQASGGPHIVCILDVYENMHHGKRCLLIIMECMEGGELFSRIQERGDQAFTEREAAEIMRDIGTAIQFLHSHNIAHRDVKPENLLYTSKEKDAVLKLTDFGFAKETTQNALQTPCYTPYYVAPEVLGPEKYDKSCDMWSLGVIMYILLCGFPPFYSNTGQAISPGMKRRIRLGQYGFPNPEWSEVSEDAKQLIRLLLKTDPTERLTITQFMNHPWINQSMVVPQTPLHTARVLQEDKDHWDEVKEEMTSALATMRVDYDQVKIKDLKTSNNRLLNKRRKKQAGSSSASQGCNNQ
Chain of RIPK2(h) (O43353 whole entry): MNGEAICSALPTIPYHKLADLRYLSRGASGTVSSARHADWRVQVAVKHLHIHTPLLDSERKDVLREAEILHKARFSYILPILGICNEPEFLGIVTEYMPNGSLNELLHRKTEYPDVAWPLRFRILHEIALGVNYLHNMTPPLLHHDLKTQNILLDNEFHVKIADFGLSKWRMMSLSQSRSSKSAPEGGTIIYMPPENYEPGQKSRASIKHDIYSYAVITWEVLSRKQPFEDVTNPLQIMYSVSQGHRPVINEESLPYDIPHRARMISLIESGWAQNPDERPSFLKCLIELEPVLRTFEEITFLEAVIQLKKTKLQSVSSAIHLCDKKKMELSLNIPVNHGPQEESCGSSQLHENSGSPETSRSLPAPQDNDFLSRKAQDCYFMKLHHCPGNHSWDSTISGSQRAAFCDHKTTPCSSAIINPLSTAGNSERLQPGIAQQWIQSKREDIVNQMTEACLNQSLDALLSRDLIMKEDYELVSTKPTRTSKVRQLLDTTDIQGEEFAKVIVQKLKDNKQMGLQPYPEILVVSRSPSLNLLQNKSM

| Sequence | % activity (RIPK2(h)) [%] | % activity (PrKX(h)) [%] | % activity (MSK2(h)) [%] | % activity (PKCε(h)) [%] | % activity (FGFR2(h)) [%] | % activity (Src(1-530)(h)) [%] | % activity (Ron(h)) [%] | % activity (SGK3(h)) [%] | % activity (CDK5/p35(h)) [%] | % activity (NEK2(h)) [%] | % activity (Flt4(h)) [%] | % activity (MAPKAP-K3(h)) [%] | % activity (Fer(h)) [%] | % activity (FGFR3(h)) [%] | % activity (EGFR(L858R)(h)) [%] |
| --- | --- | --- | --- | --- | --- | --- | --- | --- | --- | --- | --- | --- | --- | --- | --- |
| FAKLAARLYRKALARQLGVAA [MMI-0300] | 97 | 61 | 56 | 79 | 14 | 23 | 93 | 10 | 79 | 78 | 83 | 3 | 130 |  |  |
| HRRIKAWLKKIKALARQLGVAA [MMI-0500] | 30 | 57 | 14 | 23 | 12 | 21 | 46 | −3 | 59 | 0 | 73 | 9 | 196 | 10 | 26 |
| KAFAKLAARLYRKALARQLGVAA [MMI-0400] | 98 | 76 | 52 | 59 | 18 | 19 | 79 | 8 | 76 | 61 | 89 | 7 | 108 | 0 | 52 |
| YARAAARQARAKALNRQLGVA [MMI-0200] | 98 |  | 88 | 98 | 73 | 75 | 120 | 58 | 92 | 97 |  | 39 | 101 | 208 | 120 |
